Experimental data taken from patent publication US20260132197A1.

What was measured:
[1] = target: Human CD47-C33G (human) (UniProt Q08722); experiment: SPR, IgG captured, CD47 in flow; exp 3; estimated, out of instrument limit
[2] = target: human CD47 on cells (SHP-77 tumor cells, human red blood cells, CCRF-CEM cells, human CD47 CHO-K1 stable cell line) (human) (UniProt Q08722); experiment: flow cytometry on human CD47 CHO-K1 cells; plateau not reached, not accurate
[3] = target: Human CD47-C33G (human) (UniProt Q08722); experiment: SPR, IgG captured, CD47 in flow; exp 2
[4] = target: wild type human CD47 (Acro Biosystems, cat. no. CD7-H5227) (human) (UniProt Q08722); experiment: SPR, IgG captured, CD47 in flow; exp 2
[5] = target: human CD47 on cells (SHP-77 tumor cells, human red blood cells, CCRF-CEM cells, human CD47 CHO-K1 stable cell line) (human) (UniProt Q08722); experiment: flow cytometry on SHP-77 cells
[6] = target: cynomolgus CD47 on CHO-K1 stable cell line (cynomolgus); experiment: flow cytometry on cynomolgus CD47 CHO-K1 cells; plateau not reached, not accurate
cynomolgus CD47 on CHO-K1 stable cell line (cynomolgus), sequence (chain, as listed by the source): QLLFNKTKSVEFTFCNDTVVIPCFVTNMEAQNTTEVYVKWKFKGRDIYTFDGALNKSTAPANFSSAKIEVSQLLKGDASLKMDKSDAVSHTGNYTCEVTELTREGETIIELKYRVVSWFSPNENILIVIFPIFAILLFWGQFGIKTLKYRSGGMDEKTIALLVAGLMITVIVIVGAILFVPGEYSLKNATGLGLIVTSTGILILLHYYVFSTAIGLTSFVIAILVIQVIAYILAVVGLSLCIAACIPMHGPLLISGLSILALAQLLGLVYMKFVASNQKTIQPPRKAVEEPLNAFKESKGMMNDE

[7] = target: Human CD47-C33G (human) (UniProt Q08722); experiment: SPR, IgG captured, CD47 in flow; exp 1
[8] = target: wild type human CD47 (Acro Biosystems, cat. no. CD7-H5227) (human) (UniProt Q08722); experiment: SPR, IgG captured, CD47 in flow; exp 1
[9] = target: Human CD47-C33G (human) (UniProt Q08722); experiment: SPR, IgG captured, CD47 in flow; exp 1; estimated, out of instrument limit
[10] = target: Human CD47-C33G (human) (UniProt Q08722); experiment: SPR, IgG captured, CD47 in flow; exp 3
[11] = target: wild type human CD47 (Acro Biosystems, cat. no. CD7-H5227) (human) (UniProt Q08722); experiment: SPR, IgG captured, CD47 in flow; exp 3
[12] = target: Human CD47-C33G (human) (UniProt Q08722); experiment: SPR, IgG captured, CD47 in flow; exp 4
[13] = target: wild type human CD47 (Acro Biosystems, cat. no. CD7-H5227) (human) (UniProt Q08722); experiment: SPR, IgG captured, CD47 in flow; exp 4
[14] = target: human CD47 on cells (SHP-77 tumor cells, human red blood cells, CCRF-CEM cells, human CD47 CHO-K1 stable cell line) (human) (UniProt Q08722); experiment: cell-based or functional assay
[15] = target: Human CD47-C33G (human) (UniProt Q08722); experiment: SPR, IgG captured, CD47 in flow; exp 2; estimated, out of instrument limit
[16] = target: Human CD47-C33G (human) (UniProt Q08722); experiment: SPR, IgG captured, CD47 in flow; exp 1; remark: listed apart in the source
[17] = target: wild type human CD47 (Acro Biosystems, cat. no. CD7-H5227) (human) (UniProt Q08722); experiment: SPR, IgG captured, CD47 in flow; exp 1; remark: listed apart in the source
[18] = target: human CD47 on cells (SHP-77 tumor cells, human red blood cells, CCRF-CEM cells, human CD47 CHO-K1 stable cell line) (human) (UniProt Q08722); experiment: flow cytometry on human RBCs
[19] = target: Human CD47-C33G (human) (UniProt Q08722); experiment: SPR, IgG captured, CD47 in flow; exp 2; remark: listed apart in the source
[20] = target: wild type human CD47 (Acro Biosystems, cat. no. CD7-H5227) (human) (UniProt Q08722); experiment: SPR, IgG captured, CD47 in flow; exp 2; remark: listed apart in the source

B1: TJC4 positive control antibody (antibody, INN chains, looked up, V domains shown)
VH: EVQLVESGGGLVKPGGSLRLSCAASGLTFERAWMNWVRQAPGKGLEWVGRIKRKTDGETTDYAAPVKGRFSISRDDSKNTLYLQMNSLKTEDTAVYYCAGSNRAFDIWGQGTMVTVSS
VL: DIVMTQSPDSLAVSLGERATINCKSSQSVLYAGNNRNYLAWYQQKPGQPPKLLINQASTRASGVPDRFSGSGSGTEFTLIISSLQAEDVAIYYCQQYYTPPLAFGGGTKLEIK
- Kd [1]: > 630 nM
- koff [1]: > 0.1 s⁻¹
- EC50 [2]: 5.7 nM
- kon [3]: 490000 M⁻¹ s⁻¹
- Kd [4]: 4.3 nM
- koff [4]: 0.0024 s⁻¹
- kon [4]: 540000 M⁻¹ s⁻¹
- EC50 [5]: 2.8 nM
- Fitted maximal MFI [5]: 25400 MFI
- EC50 [6]: 9.7 nM
- Kd [7]: 540 nM
- koff [7]: 0.09 s⁻¹
- kon [7]: 170000 M⁻¹ s⁻¹
- Kd [8]: 4.4 nM
- koff [8]: 0.0024 s⁻¹
- kon [8]: 550000 M⁻¹ s⁻¹
- Kd [9]: > 530 nM
- koff [9]: > 0.1 s⁻¹
- kon [10]: 160000 M⁻¹ s⁻¹
- Kd [11]: 4.7 nM
- koff [11]: 0.0022 s⁻¹
- kon [11]: 460000 M⁻¹ s⁻¹
- Kd [12]: 600 nM
- koff [12]: 0.13 s⁻¹
- kon [12]: 210000 M⁻¹ s⁻¹
- Kd [13]: 4.7 nM
- koff [13]: 0.0018 s⁻¹
- kon [13]: 380000 M⁻¹ s⁻¹
- CCRF-CEM phagocytosis EC50 [14]: 0.49 nM
- CCRF-CEM phagocytosis, Phagocytosis (%) [14]: 68.6%
- Kd [15]: > 200 nM
- kon [16]: 190000 M⁻¹ s⁻¹
- Kd [17]: 4.5 nM
- koff [17]: 0.0022 s⁻¹
- kon [17]: 500000 M⁻¹ s⁻¹
- EC50 [18]: 4.3 nM
- Fitted maximal MFI [18]: 21400 MFI
- Kd [19]: 540 nM
- koff [19]: 0.09 s⁻¹
- kon [19]: 170000 M⁻¹ s⁻¹
- Kd [20]: 4.4 nM
- kon [20]: 550000 M⁻¹ s⁻¹
